Data as given in the supplement of paper PMC9170038.

test system: K4 kissing-loop RNA reporter; assay: apparent KD of K4 kissing-loop reporter; higher = weaker reporter binding; settings: Eterna round: R107; input ligand: arginine 13.2 mM
Protocol: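 RNA-MaP round R107: designed RNA switches with theophylline, tryptophan, arginine or FMN aptamers are transcribed on-chip within common flanks. They are titrated with a labelled K4 kissing-loop RNA reporter in RNA-MaP buffer (100 mM Tris pH 7.5, 80 mM KCl, 4 mM MgCl2), without ligand or with the indicated ligand. Median apparent KD per design.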
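Note: bound reporter read as fluorescence of individual clusters on recovered sequencing chips by microscopy, with normalized cluster intensities fitted with a binding model.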

Sequence	apparent KD of K4 kissing-loop reporter
UCUUGAGUAUAUGAUACCAGCAGUGAGAGACAGGAAGUAUAGUGAUGUUAUAUGAGAGAAUGCCCUUGGCAGCGUGUGCGGUGGG [SSTheophylB.S]	0.144 µM
AACUUGUUUGGAGGAUAUUCUUUAUUCGACAUAACCUUCUAUAAGGUGCAGUGAUGUUGCAAUAUAGGAGAAGGUCGAGUGAGAA [Exclusion FMN B Gf 16]	0.169 µM
GUAGCACUUGACAGUGAUGUUGUCAAGGACAAGGAUAUCAUCUCAAUGAGAAGGUGUCCUUGAUAACAGCUACGGGAAUAUCCCA [Omei KL FMN A Exc D v3]	0.108 µM
AAGUUGAACUGAAGGAGCGAGAAAUAGAAUGUAAGAAUAUAUGCUAGUGAUGUUAGAAAUUCUCAGGUAGGUCGCAGUAAGUUUU [V2]	0.418 µM
UGAUACCAGACUGAUACCAGCGAGUGAUGUUUGCUGAAAUCAGGGUCAAAGACCCUGUCUCGCCCUUGGCAGCAGUCUGGUAUCU [TheoBX 21 #SwitchBubble #StaticStem]	0.601 µM
AGAGCGGUCGAAGGAUAUGAGACAACCAACGGUGAGUGAUGUUUGCCGAGUAAACCUCUAGUUGCGUCAGAAGGUCGGCUCAGUC [theeternabot_sameState_KL_FMN_B_25]	0.46 µM
AAAUUCUUUUUUUUAUUUAAGUUUUCAGAAGGAGCGUGGUAGUACACAGGUAGGUCGCUGAAUUUUGGGCUAGUGAUGUUAGUUA [whbob_SS_Arginine_A_sa114]	0.195 µM
AAAACGCUGGAUGAAUAACAUCUAGCGAAUCGAGGACCGGUACGGCCGCCACUCGGAGCUAAACUGCGAGUGAUGUUCGUAAAAU [Mat - Mod of OpenEnded 3 - D18]	0.223 µM
CGCGUAUCGGCAGGAUAUGGAGUUGAGUGAUGUUCAGCAAUGGGUCAUCAUCUUUAUGACAAUCCACCAGAAGGGCCGAUACGCG	0.632 µM
GAAACGUUGCGGACUAUCGCAUAAAGUCACCGAGGACCGGUACGGCCGCCACUCGCCAGUGAUGUUGGCGUGUUUGCGCGCUGUG [Titebebi]	0.094 µM
AAAUAUUCGAGUGAUGUUCGUUAAAUUACAGAGGAUAUGCUUAAAAGCAGAAGGCUGUAUUUCUAUUUGUUAUGUAAUUUUAAAA [JR_ExcFMNA_Sub004]	0.209 µM
AACCGAGGUAAUCCACAAAGAUAACAUGAUACCAGAUAUAUAAAUAUCCCUUGGCAGCAUGGCAUGAGUGAUGUUCAUGUGUCUU [KL-SSTheo-A10]	0.325 µM
GGAAGAAGUGGUGUUGAUUAAGAAGCGGAAGGAGCGCCGAAGAAGGCAGGUAGGUCGCCGAAAUAUAGUGAUGUUAUAUAAAAGG [ExArg.A]	0.17 µM
CGUGCCCGGCCGGAUACCAGUGACCCGCUGGGAACCGCGGGCCCAGAGUGAUGUUCGGGACACCCUUGGCAGCCGCCUGGGCGGC [#2 Same State - Theophylline B Attempt #13 (HarryS)]	0.637 µM
AUUCUUAUAAUAACACUAUAUACAACUGAAGGAGCGACAAUAAAGUCAGGUAGGUCGCAGAAUAAAUGAGUGAUGUUCAUUUUUA [JR_ExcArginiA_Sub011]	0.153 µM
GCGCGUCAUGUCAGCGGUGACACUGUCGAUACCAGUGCCGGAAGGCGCCCUUGGCAGCGACGUGCUGGAGUGAUGUUCCAGCGUU [#2 Exclusion - Theophylline A Attempt #28 (HarryS)]	0.128 µM
AAGCAGUCACUCGUAUCCAUCGAAGAUGGUCGAGGACCGGUACGGCCGCCACUCGGAGUGAUGUUCCGAAGACUGCAAAAUAAAA [#SwitchBubble 13]	0.23 µM
UGGUUUGGAAGUGAUGUUUCUAUAAGUGAUACCAGACAAAAGAAAGUCCCUUGGCAGCACAAUGAUGCCAAGGAAACGGCAUGAU [#15 K4 Theophylline A Same State]	0.164 µM
UAGCGUAUCAGAGGAUAUGAUAUGUUAUGCAGUGAUGUUGCAUGAUGUAGCAGAAUUCUGAGUGUAUCAGAAGGCUGAUAUGCUA [FMN B Ex t3]	0.0878 µM
GCCGUAGAUUGAAGGAGCGUUCUUACUGAGUACGGCAACCGGAAGUGAUGUUUCCAGGUGGAACAGGUAGGUCGCAAUCUACGGC	0.0874 µM
AAGUGAUGUUGUAGUGAUGUUGUGAUGUUGCAGGAUAUAUAGUGAUGUAGAAGGGUAUGUGCAGUGUUGUUAUUUGAGUGUUGAU [zffdmullin]	0.0414 µM
GGAUAGGAUAGAGGAUAUGGAAAACACAGAAAUAACUUGUUGUGUUUAUCCAUAGGGAGUGAUGUUCCAGAAGGCUGUCCUAUCG [MatMod 20 - Jieux - Exclusion - FMN B]	0.2 µM
CCGCUACCCUCAGGAUAUUAAAUAUUAGUGAUGUUAAUAAACCGAUGGCGAAAGCCAUCGGUAUGUUGAGAAGGGAGGGUAGCGG [whbob_SS_FMNB__2th196]	0.593 µM
UUUGUAUAGGGAAGGAGCGUGAAUGAGAAAGAAUAUAGUGAUGUUAUAUAGAAGAAAGAAUCACAGGUAGGUCGCCCGGAGGAGG [SSArgB.G]	0.363 µM
UUAGUCAGAUUAUUAUUAGCCUGCGAGACUAAGGAUAUCCGAAUUCGGAGAAGGUAGUGAUGUUACUUUGGCAGGCACUGACAUU [AK8 Exc FMN A]	0.611 µM
CACGGAGUGAUGUUCCGACCGAGGAACGAUACCAGACAAGUAUACGUCCCUUGGCAGCGUUUCUUAUAUAGUCAACGUUACCGUA [Theo A Ex t3]	0.469 µM
UUAGUCUAGAGAAGGAGCGAGUGAUGUUCGCAGCCCAAAUAAUAAUAAUAAUAAGGGCAUCCUCAGGUAGGUCGCUCUAGACAUU [AK5 Exc Arginine B]	0.29 µM
